This note sets out measurements from the supplement of paper PMC11316812.

The subject of data set [1] is MCF7. The data set can be described thus: percentage of EdU-negative (G0-arrested) nuclei per well, 72 h; higher = more G0 arrest. The conditions noted are these: reference: sequence is the full UniProt precursor, the tested protein was the secreted form or ectodomain.
Data set [2] deals with hTERT-HMEC. Described as above. The conditions noted are these: reference: sequence is the full UniProt precursor, the tested protein was the secreted form or ectodomain.
Setting [3] is: protein concentration 0.0225 µM.
Where [4] appears, read: protein concentration 0.03125 µM.
Setting [5] is: protein concentration 0.3125 µM.
[6] abbreviates: protein concentration 0.00685714 µM.
Where [7] appears, read: protein concentration 0.0685714 µM.

± gives the standard deviation of the averaged measurements.
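Note: secreted proteins added to cultured cells, EdU pulse at the end, nuclei found by Hoechst imaging, EdU status from nuclear versus surrounding ring intensity ratio, PBS as neutral control.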

Regarding “MEPQLGPEAAALRPGWLALLLWVSALSCSFSLPASSLSSLVPQVRTSYNFGRTFLGLDKCNACIGTSICKKFFKEEIRSDNWLASHLGLPPDSLLSYPANYSDDSKIWRPVEIFRLVSKYQNEISDRRICASASAPKTCSIERVLRKTERFQKWLQAKRLTPDLVQGLASPLLRCPSQRLLDRVVRRYAEVADAGSIFMDHFTDRDKLRLLYTLAVNSHPILLQIFPGAEGWPLPKYLGSCGRFLVSTSTRPLQEFYDAPPDQAADLAYQLLGVLESLRSNDLNYFFYFTHIDAGMFGVFNNGHLFIRDASAVGVIDKQEGSQEANRAGENKDIFSCLVSGCQAQLPSCESISEKQSLVLVCQKLLPRLLQGRFPSPVQDDIDSILVQCGDSIRPDPEVLGAASQLKDILRPLRTCDSRFAYRYPDCKYNDKF [Q9H7Y0]”, the “percentage of EdU-negative” value in data set [1] (setting [3]) is 25.8 ± 2.1%; in data set [1] (protein concentration 0.225 µM), 25.3 ± 2%; in data set [2] (setting [3]) it was 5.59 ± 0.064%; in data set [2] (protein concentration 0.225 µM), 5.31 ± 0.38%.

With “MRPLLCALTGLALLRAAGSLAAAEPFSPPRGDSAQSTACDRHMAVQRRLDVMEEMVEKTVDHLGTEVKGLLGLLEELAWNLPPGPFSPAPDLLGDGF [Q5JTB6]”, the “percentage of EdU-negative” value in data set [1] (setting [3]) was found to be 28.1 ± 2.1%; in data set [1] (protein concentration 0.225 µM), 26 ± 1.2%; in data set [2] (setting [3]), 4.3 ± 0.46%; in data set [2] (protein concentration 0.225 µM) it was 5.25 ± 0.17%.

As to “MAAFPHKIIFFLVCSTLTHVAFSGIFNKRDFTRWPKPRCKMYIPLDPDYNADCPNVTAPVCASNGHTFQNECFFCVEQREFHYRIKFEKYGKCD [Q1W4C9]”, the “percentage of EdU-negative” value came to 26.8 ± 1.7% in data set [1] (setting [3]), 27.7 ± 0.31% in data set [1] (protein concentration 0.225 µM), 5.06 ± 0.42% in data set [2] (setting [3]) and 7.07 ± 0.77% in data set [2] (protein concentration 0.225 µM).

Take “MQMPAMMSLLLVSVGLMEALQAQSHPITRRDLFSQEIQLDMALASFDDQYAGCAAAMTAALPDLNHTEFQANQVYADSWTLASSQWQERQARWPEWSLSPTRPSPPPLGFRDEHGVALLAYTANSPLHKEFNAAVREAGRSRAHYLHHFSFKTLHFLLTEALQLLGSGQRPPRCHQVFRGVHGLRFRPAGPRATVRLGGFASASLKHVAAQQFGEDTFFGIWTCLGAPIKGYSFFPGEEEVLIPPFETFQVINASRLAQGPARIYLRALGKHSTYNCEYIKDKKCKSGPCHLDNSAMGQSPLSAVWSLLLLLWFLVVRAFPDGPGLL”: the “percentage of EdU-negative” value is 23.7 ± 1.5% in data set [1] (setting [3]), 25 ± 0.33% in data set [1] (protein concentration 0.225 µM), 5.126 ± 0.0053% in data set [2] (setting [3]) and 6.16 ± 2.3% in data set [2] (protein concentration 0.225 µM).

“MPPSGPRGTLLLLPLLLLLLLRAVLAVPLERGAPNKEETPATESPDTGLYYHRYLQEVIDVLETDGHFREKLQAANAEDIKSGKLSRELDFVSHHVRTKLDELKRQEVSRLRMLLKAKMDAEQDPNVQVDHLNLLKQFEHLDPQNQHTFEARDLELLIQTATRDLAQYDAAHHEEFKRYEMLKEHERRRYLESLGEEQRKEAERKLEEQQRRHREHPKVNVPGSQAQLKEVWEELDGLDPNRFNPKTFFILHDINSDGVLDEQELEALFTKELEKVYDPKNEEDDMREMEEERLRMREHVMKNVDTNQDRLVTLEEFLASTQRKEFGDTGEGWETVEMHPAYTEEELRRFEEELAAREAELNAKAQRLSQETEALGRSQGRLEAQKRELQQAVLHMEQRKQQQQQQQGHKAPAAHPEGQLKFHPDTDDVPVPAPAGDQKEVDTSEKKLLERLPEVEVPQHL”: the “percentage of EdU-negative” value came out at 24.1 ± 0.73% in data set [1] (setting [4]), 26.9 ± 1.6% in data set [1] (setting [5]), 4.94 ± 0.37% in data set [2] (setting [4]) and 7.16 ± 0.53% in data set [2] (setting [5]).

“MAAVRGAPLLSCLLALLALCPGGRPQTVLTDDEIEEFLEGFLSELEPEPREDDVEAPPPPEPTPRVRKAQAGGKPGKRPGTAAEVPPEKTKDKGKKGKKDKGPKVPKESLEGSPRPPKKGKEKPPKATKKPKEKPPKATKKPKEKPPKATKKPKEKPPKATKKPPSGKRPPILAPSETLEWPLPPPPSPGPEELPQEGGAPLSNNWQNPGEETHVEAREHQPEPEEETEQPTLDYNDQIEREDYEDFEYIRRQKQPRPPPSRRRRPERVWPEPPEEKAPAPAPEERIEPPVKPLLPPLPPDYGDGYVIPNYDDMDYYFGPPPPQKPDAERQTDEEKEELKKPKKEDSSPKEETDKWAVEKGKDHKEPRKGEELEEEWTPTEKVKCPPIGMESHRIEDNQIRASSMLRHGLGAQRGRLNMQTGATEDDYYDGAWCAEDDARTQWIEVDTRRTTRFTGVITQGRDSSIHDDFVTTFFVGFSNDSQTWVMYTNGYEEMTFHGNVDKDTPVLSELPEPVVARFIRIYPLTWNGSLCMRLEVLGCSVAPVYSYYAQNEVVATDDLDFRHHSYKDMRQLMKVVNEECPTITRTYSLGKSSRGLKIYAMEISDNPGEHELGEPEFRYTAGIHGNEVLGRELLLLLMQYLCREYRDGNPRVRSLVQDTRIHLVPSLNPDGYEVAAQMGSEFGNWALGLWTEEGFDIFEDFPDLNSVLWGAEERKWVPYRVPNNNLPIPERYLSPDATVSTEVRAIIAWMEKNPFVLGANLNGGERLVSYPYDMARTPTQEQLLAAAMAAARGEDEDEVSEAQETPDHAIFRWLAISFASAHLTLTEPYRGGCQAQDYTGGMGIVNGAKWNPRTGTINDFSYLHTNCLELSFYLGCDKFPHESELPREWENNKEALLTFMEQVHRGIKGVVTDEQGIPIANATISVSGINHGVKTASGGDYWRILNPGEYRVTAHAEGYTPSAKTCNVDYDIGATQCNFILARSNWKRIREIMAMNGNRPIPHIDPSRPMTPQQRRLQQRRLQHRLRLRAQMRLRRLNATTTLGPHTVPPTLPPAPATTLSTTIEPWGLIPPTTAGWEESETETYTEVVTEFGTEVEPEFGTKVEPEFETQLEPEFETQLEPEFEEEEEEEKEEEIATGQAFPFTTVETYTVNFGDF [Q8IUX7]”: the “percentage of EdU-negative” value came to 24.8 ± 1.1% in data set [1] (setting [6]), 28.5 ± 0.34% in data set [1] (setting [7]), 4.79 ± 0.43% in data set [2] (setting [6]) and 11.5 ± 0.62% in data set [2] (setting [7]).
